For this data set, the system named is MS2 coat protein. Briefly: apparent KD of MS2 coat protein; designed switch direction (-1 OFF switch, 1 ON switch): -1; higher = weaker reporter binding. The gist of the method: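 The reported apparent KD is a per-design median over clusters, from curve fits of normalised cluster fluorescence. Protein titrations used SNAP-549-labelled MS2 coat protein, doubled from 0.7 or 1.5 nM to 3 µM, in Tris-HCl pH 7.5 buffer with KCl, MgCl2, BSA, DTT, tRNA and Tween-20, with no input, 200 uM small-molecule ligand, or an oligonucleotide input. The RNA switches were transcribed on Illumina chips by stalled E. coli RNA polymerase.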

Where [1] appears, read: Eterna round: R95, input ligand: FMN 200 uM.
Where [2] appears, read: Eterna round: R95, input ligand: microRNA oligo, concentration not stated.
Setting [3] is: Eterna round: R95, input ligand: none.
Where [4] appears, read: input ligand: microRNA oligo, concentration not stated.

“CGGGAGGGACAAGCUUUUUGCACGUCUGUUAUUGAUGCUACAUGAGGAUCACCCAUGUUUAAGAUGUGUGAGGAUGG [JR_SV3TOV2_Sub053] (puzzle: Sensor v3, turn-off variant 2)”: the “apparent KD of MS2 coat protein” value was found to be 26.2 nM under setting [1], 57.6 nM under setting [2] and 31.3 nM under setting [3].
Take “CGGGCCGGCCUUCCGGCCGGCCCGACAUGAGGAUCACCCAUGUAGGAUAUCCCGGCUGCCGGCCGGGAGAAGGGCGUGCGUCCG [-50.4, -49.4 kcal, 14% A] (Eterna round: R96, puzzle: Exclusion NG 3)”: the “apparent KD of MS2 coat protein” value by setting is: (input ligand: FMN 200 uM) 151 nM; under setting [4], 87.8 nM; (input ligand: none) 137 nM.
Turning to “CGGGCGCGAGGAUAUACAUGAGGAUCACCCAUGUAACGGCGAGCAAUGUUUGUUGCGUGUAGAAGGUGUGUUUG [-20.1, -18.7 kcal, A 27%] (Eterna round: R97, puzzle: Exclusion 3)”, the “apparent KD of MS2 coat protein” value (input ligand: FMN 200 uM) is 112 nM and the “apparent KD of MS2 coat protein” value (input ligand: none) was found to be 155 nM.
For “CGGUACUGAGGAUAUACAUGAGGAUCACCCAUGUGUUCCAGCUAGCGUACUGGCAUUAGUAGAAGGCGGUGCUG [JL-ex3-3.17 Brourd mod] (puzzle: Exclusion 3)”, the “apparent KD of MS2 coat protein” value under setting [1] stood at 31.4 nM, the “apparent KD of MS2 coat protein” value under setting [2] is 12.8 nM and the “apparent KD of MS2 coat protein” value under setting [3] turned out to be 14.3 nM.
With “CGGUACUGAGGAUAUACAUGAGGAUCACCCAUGUGUUCUAGCUAGCGUACUGGCAUUAGUAGAAGGCGGUGCUG [JL-ex3-3.18 Brourd mod] (puzzle: Exclusion 3)”, the “apparent KD of MS2 coat protein” value runs as follows: under setting [1], 28.9 nM; under setting [2], 15.4 nM; under setting [3], 17.2 nM.
Consider “CGUAGCAAAGUGAGGAUAUCUAGAGCGAUAGCUCUAGAGAAGGCACAUGAGGAUCACCCAUGUGGUCAGCUACG [BmEx4/8-A4] (Eterna round: R97, puzzle: Brourd's mod of Exclusion 4)”, for which the “apparent KD of MS2 coat protein” value is, setting by setting: (input ligand: FMN 200 uM) 393 nM; (input ligand: none) 82.4 nM.
In the same order, the values of “CGUAGCAAUGUGAGGAUAUCUAGAGCCUCGGCUCUAGAGAAGGCACAUGAGGAUCACCCAUGUGAUUAGCUACG [BmEx4/9-B2] (Eterna round: R97, puzzle: Brourd's mod of Exclusion 4)” are 597 nM and 405 nM.
As for “CGUCAGAUCGCAGGAUAUGUUAGAUGAGCACAGAAUGUCCAGACCACAUGAGGAUCACCCAUGUAACAGAAGGGCGGUCUACGG [Eternabot solution 29] (Eterna round: R96, puzzle: Exclusion NG 2)”, the “apparent KD of MS2 coat protein” value worked out at 79.3 nM (input ligand: FMN 200 uM), 195 nM under setting [4] and 95.6 nM (input ligand: none).
Regarding “CGUCAGUCAGGAUAUGCAUACGUAGACAUGAGGAUCACCCAUGUGACGUGGGACUGGUGUGUAGAAGGGACGAACA [EX5 #78] (Eterna round: R97, puzzle: Exclusion 5)”, the “apparent KD of MS2 coat protein” value (input ligand: FMN 200 uM) turned out to be 23.1 nM and the “apparent KD of MS2 coat protein” value (input ligand: none) was found to be 21.3 nM.
Turning to “CGUCCUGAAGUGAGGAUAUUGUCUCGGAUACGAAACAAGAAGGCACAUGAGGAUCACCCAUGUAAACAGGACGA [Malc #30 mod 11] (puzzle: Brourd's mod of Exclusion 4)”, the “apparent KD of MS2 coat protein” value was found to be 15.3 nM under setting [1], 15.6 nM under setting [2] and 16.9 nM under setting [3].
“CGUCUGUUAGGAUAUGACCCGCGUACCGUGUCGAGCCGGGUUCAGAAGGAACAUGAGGAUCACCCAUGUGAGAA [Eternabot (L1) Solution 12] (Eterna round: R97, puzzle: Exclusion 4)”: the “apparent KD of MS2 coat protein” value was determined as 163 nM (input ligand: FMN 200 uM) and 27.3 nM (input ligand: none).
As to “CGUGACUCAGGAUAUCUAUAGUGUCACAUGAGGAUCACCCAUGUCCAGCGAAAGCUGGAGGGAGAAGGGAGUCACG [Fiskers Ex 5 - 43] (Eterna round: R96, puzzle: Exclusion 5)”, the “apparent KD of MS2 coat protein” value (input ligand: FMN 200 uM) was determined as 43.1 nM, the “apparent KD of MS2 coat protein” value under setting [4] stood at 71.5 nM and the “apparent KD of MS2 coat protein” value (input ligand: none) worked out at 87.7 nM.
Take “CGUGACUCAGGAUAUCUAUAGUGUCACAUGAGGAUCACCCAUGUCCAGCGAAAGCUGGAGGGAGAAGGGAGUCACG [Fiskers Ex 5 - 43] (puzzle: Exclusion 5)”: the “apparent KD of MS2 coat protein” value under setting [2] stood at 90.5 nM.
For “CGUGACUCAGGAUAUCUAUGAUAUCACAUGAGGAUCACCCAUGUCCAGCAAUAGCUGGAGGGAGAAGGGAGUCACG [Fiskers Ex 5 - 41] (puzzle: Exclusion 5)”, the “apparent KD of MS2 coat protein” value is 84 nM under setting [1], 54.3 nM under setting [2] and 166 nM under setting [3].
With “CGUGACUGAGGAUAUCUAUAAUAUCACAUGAGGAUCACCCAUGUCCAGCGAAAGCUGGAGGGAGAAGGCAGUCACG [Fiskers Ex 5 - 29] (puzzle: Exclusion 5)”, the “apparent KD of MS2 coat protein” value is, setting by setting: under setting [1], 53 nM; under setting [2], 127 nM; under setting [3], 75.3 nM.
Consider “CGUGCGUAUGUGAGGAUAUGCUGGUCCUUGGAUCGGCAGAAGGCACAUGAGGAUCACCCAUGUGGUGUCGUGCA [salish99_Bmod_ex4_090] (puzzle: Brourd's mod of Exclusion 4)”, for which the “apparent KD of MS2 coat protein” value under setting [2] was found to be 190 nM.
Take “CGUGUCUUUCACGUGAGUGGUGGGUGCAACAGGUGGGAAACAUGAGGAUCACCCAUGUCCUCAUUUGCUCGUCUUAU [Grok-var2-02] (puzzle: Sensor v3, turn-off variant 2)”: the “apparent KD of MS2 coat protein” value amounted to 686 nM under setting [1], 457 nM under setting [2] and 572 nM under setting [3].
Consider “CGUUGGCGAGGAUAUACAUGAGGAUCACCCAUGUGAGAGAAAAAAGUGAGGAAGAAAAGUAGAAGGCGCUGACC [salish99_ex3_r3_049] (puzzle: Exclusion 3)”, for which the “apparent KD of MS2 coat protein” value is 110 nM under setting [1], 42.7 nM under setting [2] and 45.9 nM under setting [3].
Turning to “CUAAAUCAUGUAGGAUAUGCGUGGCGAAGCUAUGCAGAAGGACAUGAGGAUCACCCAUGUGCUUCCGUCUGAGAACAGACGGAA [Mat - Exclusion NG 1 - Mod of JL - D26] (Eterna round: R96, puzzle: Exclusion NG 1)”, the “apparent KD of MS2 coat protein” value worked out at 115 nM (input ligand: FMN 200 uM), 277 nM under setting [4] and 251 nM (input ligand: none).
As to “CUAACAUGCUGGUGAUCAUACAUGAGGAUCACCCAUGUAACAAGCUUUUUGUUCGUCUUAUAAGAUUACUAGUAUGU [Stov1/10-B3] (Eterna round: R97, puzzle: Sensor, turn-off variant 1)”, the “apparent KD of MS2 coat protein” value turned out to be 38.8 nM (input ligand: FMN 200 uM) and 52.3 nM (input ligand: none).
Regarding “CUAGAGCGAGGAUAUACAUGAGGAUCACCCAUGUGGCAGCCGGGUAGGAGUGACGUCGGUAGAAGGCGCACCCG [Anrate] (puzzle: Exclusion 3)”, the “apparent KD of MS2 coat protein” value turned out to be 27.5 nM under setting [1], 33.2 nM under setting [2] and 37.9 nM under setting [3].
In the same order, the values of “CUAGAUCUUCGGAUCUAGUACAUGAGGAUCACCCAUGUUACGAGUUGAUUUUCAUACAAGCUUUUUGCUCGUCUUAU [Sensor v3 - Turn-off variant 1 - 28] (puzzle: Sensor v3, turn-off variant 1)” are 134 nM, 84.4 nM and 153 nM.
On to “CUAGCGAAUGUAGGAUAUCGGACUGUUUCAGUCUGAGAAGGACAUGAGGAUCACCCAUGUAUUGCUACGUGAGUAGCUCGCUAG [JL ENG1 3.92] (Eterna round: R96, puzzle: Exclusion NG 1)”, for which the “apparent KD of MS2 coat protein” value reads like this: (input ligand: FMN 200 uM) 32.4 nM; under setting [4], 13.7 nM; (input ligand: none) 18 nM.
In the case of “CUAGCGAGUGUAGGAUAUCGGACUGUUUCAGUCUGAGAAGGACAUGAGGAUCACCCAUGUGAAGCUACGUGAGUAGCACGCUAG [JL ENG1 3.87] (Eterna round: R96, puzzle: Exclusion NG 1)”, the “apparent KD of MS2 coat protein” value was 74.5 nM (input ligand: FMN 200 uM), 18.3 nM under setting [4] and 24.5 nM (input ligand: none).
The corresponding values for “CUAGCGAUUGUAGGAUAUCGAUGUGUUUCACAUCGAGAAGGACAUGAGGAUCACCCAUGUGAAGGAUCGUGAGAUCCACGCUAG [JL ENG1 3.78] (Eterna round: R96, puzzle: Exclusion NG 1)” are 76.6 nM, 17.5 nM and 19.7 nM.
Regarding “CUAGCUUCGGCUAGUACAAGCUUUUUGCUCGUCUUAUUAACAUGAGGAUCACCCAUGUUAAUGAGACCUCAUGUAUU [Sensor v3 - turn-off variant 2 - 9] (Eterna round: R96, puzzle: Sensor v3, turn-off variant 2)”, the “apparent KD of MS2 coat protein” value is 11.5 nM (input ligand: FMN 200 uM), 12.2 nM under setting [4] and 13.6 nM (input ligand: none).
In the case of “CUAGCUUCGGCUAGUACAAGCUUUUUGCUCGUCUUAUUAACAUGAGGAUCACCCAUGUUAAUGAGACCUCAUGUAUU [Sensor v3 - turn-off variant 2 - 9] (puzzle: Sensor v3, turn-off variant 2)”, the “apparent KD of MS2 coat protein” value runs as follows: under setting [1], 12.7 nM; under setting [2], 15.2 nM; under setting [3], 11.1 nM.
Take “CUAGGGCACAUUUAAACGCCCUAACAUGAGGAUCACCCAUGUCAGGAUAUGUAGGCAAAGACCCUACAGAAGGGACAUGUCCUA [Recebe] (Eterna round: R96, puzzle: Exclusion NG 3)”: the “apparent KD of MS2 coat protein” value (input ligand: FMN 200 uM) worked out at 303 nM, the “apparent KD of MS2 coat protein” value under setting [4] came to 42.9 nM and the “apparent KD of MS2 coat protein” value (input ligand: none) stood at 52.9 nM.
Turning to “CUAUCAAGCAAGGAUAUGCAAAUAAUUAUUUAUGCAGAAGGUGCAACAUGAGGAUCACCCAUGUUUCUGGGUUU [JR_E6_Sub048] (puzzle: Exclusion 6)”, under setting [2], the “apparent KD of MS2 coat protein” value amounted to 44.9 nM.
Same read-out and setting: as for “CUAUCAAGCAAGGAUAUGCAAUUUAUUAUUUAUGCAGAAGGUGCAACAUGAGGAUCACCCAUGUUUCUGGGUUU [JR_E6_Sub047] (puzzle: Exclusion 6)”, the figure is 39.5 nM.

Values taken from the supplement of paper PMC9170038.
